Laboratory results: patent US20060159697A1 (INSTITUT PASTEUR, published 2006)

Target: human CD11b/CD18 (alphaM beta2 integrin) on transfected CHO cells (human, UniProt P11215 17-1152; P05107 23-769)
Test: FACS competition on CHO-CD11b cells, competitor CyaA-biotin

B1: CyaA 373-1706 (hemolytic moiety) (other)
chain: MGCGNSKFSPDVLETVPASPGLRRPSLGAVERQDSGYDSLDGVGSRSFSLGEVSDMAAVEAAELEMTRQVLHAGARQDDAEPGVSGASAHWGQRALQGAQAVAAAQRLVHAIALMTQFGRAGSTNTPQEAASLSAAVFGLGEASSAVAETVSGFFRGSSRWAGGFGVAGGAMALGGGIAAAVGAGMSLTDDAPAGQKAAAGAEIALQLTGGTVELASSIALALAAARGVTSGLQVAGASAGAAAGALAAALSPMEIYGLVQQSHYADQLDKLAQESSAYGYEGDALLAQLYRDKTAAEGAVAGVSAVLSTVGAAVSIAAAASVVGAPVAVVTSLLTGALNGILRGVQQPIIEKLANDYARKIDELGGPQAYFEKNLQARHEQLANSDGLRKMLADLQAGWNASSVIGVQTTEISKSALELAAITGNADNLKSVDVFVDRFVQGERVAGQPVVLDVAAGGIDIASRKGERPALTFITPLAAPGEEQRRRTKTGKSEFTTFVEIVGKQDRWRIRDGAADTTIDLAKVVSQLVDANGVLKHSIKLDVIGGDGDDVVLANASRIHYDGGAGTNTVSYAALGRQDSITVSADGERFNVRKQLNNANVYREGVATQTTAYGKRTENVQYRHVELARVGQVVEVDTLEHVQHIIGGAGNDSITGNAHDNFLAGGSGDDRLDGGAGNDTLVGGEGQNTVIGGAGDDVFLQDLGVWSNQLDGGAGVDTVKYNVHQPSEERLERMGDTGIHADLQKGTVEKWPALNLFSVDHVKNIENLHGSRLNDRIAGDDQDNELWGHDGNDTIRGRGGDDILRGGLGLDTLYGEDGNDIFLQDDETVSDDIDGGAGLDTVDYSAMIHPGRIVAPHEYGFGIEADLSREWVRKASALGVDYYDNVRNVENVIGTSMKDVLIGDAQANTLMGQGGDDTVRGGDGDDLLFGGDGNDMLYGDAGNDTLYGGLGDDTLEGGAGNDWFGQTQAREHDVLRGGDGVDTVDYSQTGAHAGIAAGRIGLGILADLGAGRVDKLGEAGSSAYDTVSGIENVVGTELADRITGDAQANVLRGAGGADVLAGGEGDDVLLGGDGDDQLSGDAGRDRLYGEAGDDWFFQDAANAGNLLDGGDGRDTVDFSGPGRGLDAGAKGVFLSLGKGFASLMDEPETSNVLRNIENAVGSARDDVLIGDAGANVLNGLAGNDVLSGGAGDDVLLGDEGSDLLSGDAGNDDLFGGQGDDTYLFGVGYGHDTIYESGGGHDTIRINAGADQLWFARQGNDLEIRILGTDDALTVHDWYRDADHRVEIIHAANQAVDQAGIEKLVEAMAQYPDPGAAAAAPPAARVPDTLMQSLAVNWR
binding result: binds
